From the DeepSol protein solubility set

Experiment: soluble on expression in E. coli; label from the status in PepcDB or PDB records

| Sequence | soluble on expression in E. coli |
| --- | --- |
| MMKFSVIVPTYNSEKYITELLNSLAKQDFPKTEFEVVVVDDCSTDQTLQIVEKYRNKLNLKVSQLETNSGGPGKPRNVALKQAEGEFVLFVDSDDYINKETLKDAAAFIDEHHSDVLLIKMKGVNGRGVPQSMFKETAPEVTLLNSRIIYTLSPTKIYRTALLKDNDIYFPEELKSAEDQLFTMKAYLNANRISVLSDKAYYYATKREGEHMSSAYVSPEDFYEVMRLIAVEILNADLEEAHKDQILAEFLNRHFSFSRTNGFSLKVKLEEQPQWINALGDFIQAVPERVDALVMSKLRPLLHYARAKDIDNYRTVEESYRQGQYYRFDIVDGKLNIQFNEGEPYFEGIDIAKPKVKMTAFKFDNHKIVTELTLNEFMIGEGHYDVRLKLHSRNKKHTMYVPLSVNANKQYRFNIMLEDIKAYLPKEKIWDVFLEVQIGTEVFEVRVGNQRNKYAYTAETSALIHLNNDFYRLTPYFTKDFNNISLYFTAITLTDSISMKLKGKNKIILTGLDRGYVFEEGMASVVLKDDMIMGMLSQTSENEVEILLSKDIKKRDFKNIVKLNTAHMTYSLKLEHHHHHH | soluble |
| MSYQSLLTHRCDIYHLQEKKENRKQKFGVPVEDVQPVFSYPDEPDIENQPCYFTEKSQSIIQQESNVSIYQSFLVHFPATADIRVNDRAVWDGTAYKLQKPRKIRNHHWEVTAVREVEYLLEHHHHHH | soluble |
| MSLATARTYLASLTVATEDRTGYDRDLFPHWITQSGTCNTRETILKRDGTNVVTDSSCAATSGSWYSPYDGATWSASSDVDIDHMVPLAEAWDSGADSWTTSRRQSFANDLTRPQLLAVTDNVNQSKGDQDPATWMPSRSAYRCTYVRAWVQVKYYYDLSVDSAEKSAMQGYLANCEGHHHHHH | not soluble |
| MHLNANLKYCCLWKLQSPHSCVPMLVWNCSLHPPSQYCSPLFETAVAENINRLSSHCIKKKSIQRGEKMKQTLRLLGAVTLLGITGCQFNQPPVSSIGAWEKPGADFTEIGKALLECGMPTPYDRDPENDNRSFNQMATIDACMLQAGFRYKYDVGGGMVWKS | not soluble |
| MGSDKIHHHHHHMNKPCIISVAITGSLPRKKDNPAVPITVSEQVESTQAAFEAGATLVHLHVRNDDETPTSNPDRFALVLEGIRKHAPGMITQVSTGGRSGAGNERGAMLSLRPDMASLATGSVNFPTRVYDNPPELVDWLAAEMKTYGIKPEVEAFDLSMIFQAAAMQAAGAIVGPLHIQFVMGIKNAMPVDREVLEFYVQTLKRLSPDATWTGAGIGRHQLTMARWSLELGGHCRTGLEDNVRLDKNTLAPSNAALVRQVAELCEEYGRPVATAAQAREIMSLG | not soluble |
| AIANCCIGLGEKARGSHRASYPSLSALFTEASILGFGSFAVKAQWTEDCRKSTYPPSGPTVFPAVIRYRGAVPWYTINLDLPPYKRWHELMLDKAPVPGLLGNFPGPFEEEMKGIAAVTDIPLGEIISFNIFYELFTVCTSIVAEDKKGHLIHGRNMDFGVFLGWNINNDTWVITEQLKPLTVNLDFQRNNKTVFKASSFAGYVGMLTGFKPGLFSLTLNERFSINGGYLGILEWILGKKDAMWIGFLTRTVLENSTSYEEAKNLLTKTKILAPAYFILGGNQSGEGCVITRDRKESLDVYELDAKQGRWYVVQTNYDRWKHPFFLDDRRTPAKMCLNRTSQENISFETMYDVLSTKPVLNKLTVYTTLIDVTKGQFETYLRDCPDPCIGW | soluble |
| MAHHHHHHMLTSTAYGMELQARAIAPFYHSSNNSSSTHRFVAGTACFAGGNVIRLLTFQEESQLLECTATWSHEEEIFGLWSSPSVAGPSLLAVGASSYCRIFRVSDDVSGELEPVVNFNAAAAQVLWDLEGLQNEVKLISEDSLRIYSLTEGKMGEEIGRFRVDGCAELRCAALDPHHSSVCLAAGEGIGIAVIDTRRKGPIVMPNTTTLHGLGMIQSIDFSNAREGLFMTAGTDGVIMWHDFRMDGEKSVVERRGYLDAHDHCVQRSLFNPFHDELLISCGSDHTLKLWDTSKKGADGECAVCVSKLSDFAESVVACCWSNSNPWVFAGLSYNGRVLVDSVPEECKMQFIGKEG | not soluble |
| GKPFYYDVNFNLADSRAYITKYENPKGLLGDYYVGKEIGEIWGVETLGFFTSEEDIKNHADQSWCTSYPGTRPLAPGDLKFKDENKDGKITDGAWTLEDHGDYKIIGNSRARYTFGLSANAQWNGFDLSLFAQGVGKKDYYPGTGDLYFWGIYAQPWTNITKGNMYDHWTEENPDAYFPRMKAYVAENTDRECGVVQTRYLQNAAYMRLKNLTVGYTLPKVLLNKIGIERLRIFFSGDNLCEFSGLYKHYKVDPESLGNIVYPLQRSYSFGLNVTF | not soluble |
| MIFYFSGTGNSKWIAEQIAKAQNEVLVFMPNAIRDGIEEFVLADDEKVGFVFPVYSWGPPLSVLRFLDWITLSNYHSQYVFFVCSCGDDTGLTEELFRRALSRKGMECNAGFSVAMPNNYVLLPGFDVDKKELEKKKLDEAVGRVEEINDSITGKKIGFHCNEGSFPWFKTKVLNPLFNRFMTSAKPFYATDDCIGCKRCERICPVGNVVMIGWRPVWGMDCTSCLACYHVCPKHAVQYGRRTKRKGQYLNPNVSISHEAAAQLEHHHHHH | not soluble |
| STITTEEVLVTVFQFLEKATEYPYNDPHKTLALVVHGILLTHGFRPSEEEPPENVDNWSLSVENAKIPNCFEENKYGGSYRHYKSCMTFEVRMVPLDKYVVVNAVASDVDRVFYCELKLEKYFKDTVLEGGKLVVPLRNLKWSQILKNVTDMIAVLRTQIIYALVPDSAKEGYEAKTSETHVGQSTNQQSQDSRQFSLPSRDPLRVVPPVGSRYYPSAYIDEDRDSIPVLGQGDLYPGGLPRLERTFPSGPLDGSFAAPDNGSLMGPRHSMFQRRDQRPGPGNNMLPRGAVPPGARFDEFGPRFPPDETYSTLAGWRHRQEMPNNDVDEPPPPEMYM | soluble |
| MGSDKIHHHHHHMSNTGSLSYLRILDFTGEIGPYAAKLYAGLGADVIHIEPIAGDTLRSTGPFFGNRPGKERSMQFIYYNAGKRGLVLDLKKEKGKEVFVDLCKGADILFESFTPGYLDELGLSFDVLSAANPKLVQTSITPFGSFGPYSTYPGSDLTCSALGGFLYLAGIDNDKPVRACDNQAYRMAEVYAAVGSSIALLFAQKTGVGQFVDVSCMEAVGMALETAAQCWDLEGTLRRGRGKEAGSATIHPCKDGFIAIVAIVGRNKTMWTPFVQWMKEEGVEEWELFDNDNWINASYRESKAGYELFCRIFERFTMKHTKQYLYDAGQAHRVAVSPVSNGKDLLENPQLNHHDFWQRLYHEPVGAEVVCPGAPYEFGHLKWRLGDFAPTFGQHTAEVLGECGYSRSEIDALDREGVVHVAKS | not soluble |
| MSPEGAERYDRNCDHQFQKGHVLIEMMGIKKGDFVLDVGCGTGRQALNVAGIIGPAGKLTGIDPSSYRIELARKKFEGDSSGNVRFLVRQAENLQDIPDNSINHAYFCSSFHWVDDKKTALNEIFRVLRPGGKVGMTTLDRNSPNTMKALIDPILAKFGIERRHEWHRGMKKVTAPELHDLLSGAGFTSISIEPRAVPRKYNSPEEFLQHPEEKDSSRGILRDISNETLEKLRQEITEEFRKAQTPEDIGFGNITLFAIATKAQEGLEHHHHHH | not soluble |
| MALKTAVHEKIMNDVVLAVKKNAEWKVLIVDQLSMRMVSACCKMHEIMSEGITLVEDINRRREPLPLLEAVYLITPTEESVKCLMADFQNPDNPQYRGAHIFFTEACPEELFKELCKSTTARFIKTLKEINIAFLPYESQIFSLDSPDTFQVYYNPSRAQGGIPNKERCAEQIATLCATLGEYPSVRYRSDFDENASFAQLVQQKLDAYRADDPTMGEGPQKDRSQLLILDRGFDPISPLLHELTFQAMAYDLLPIENDVYKYVNTGGNEVPEKEVLLDEKDDLWVEMRHQHIAVVSQNVTKKLKQFADEKRMGTAADKAGIKDLSQMLKKMPQYQKELSKYSTHLHLAEDCMKQYQQHVDKLCKVEQDLAMGTDADGEKIRDHMRNIVPILLDQKISAYDKIRIILLYIIHKGGISEENLAKLVQHAHIPAEEKWIINDMQNLGVPIIQDGGRRKIPQPYHTHNRKERQADHTYQMSRWTPYMKDIMEAAVEDKLDTRHYPFLNGGGPRPSCQQPVSVRYGHWHKDKGQASYKSGPRLIIFVVGGISYSEMRSAYEVTQTAKNNWEVILGSTHILTPEGLLRDLRKISNP | soluble |
| MNYHQYYPVDVVNGPGTRCSLFVAGCVHECVGCYNKSTWRLNSGQPFTQEQEDRIIADLQDKLIPRQGISLSGGDPLHPQNVPDILRLVERIRAECPGKDIWVWTGYVLADITREQQRVVDLINVLVDGKFVQDLKDPALIWRGSSNQVVHRLRLEHHHHHH | not soluble |
| MSLIISISNLSPKSNRSQTKDSQISKWSYFSDCILRSTGFPAEWIEKLCFHKTTTMFDLCYRTEQSLNELVERLKTLEQTCHIPSNARQDWQRIRKLVGKRKKVTDEFIHLMEQKGFDQSLTQEIESYERKRRLQEKNWTKARESFEAELAEKQLFLQEIYKNPRLQEAIFQQSPSMYKNAVVPYVHSSLQKRNTNIKRIERQLISYLQRLCTKNETTSFFGPIQYGVLTSEQQDIEYNFNQKETERRAFMPYWSIKVLAAQMKECDVFFPYLNVKLSYQYTKTGDSIHSPILEKMVKFPKPYADIIKHLTYENQSIEQLAKKLSQPVAWLAKKLRLLEKKRLILIEIPLSITEPDSLNELRSWILKIKDVEHPDLSLWQERLEWLWKVKQAYPYMTLGQKQELFHKLESTFTEWTGEQPRRLGGEIYADRNLLYEECHGPLNNIKIGGSIKHVLKQDVPKWLSICAKHGEQRRKQEQALAQEIFKMMYPNEDSVPFLKFVHDLSNHPDVHTWEKRWQSIKTEIEEAITHEVASNPKSVVHLSLDYQDFDRDMAWLTSPDLMIAKKDDDSYQVILGEIHDTIMVWGWALQFHPEKDRVNEQLVKKIQKSTQHLRMLNMLSSKRFKIVPFEYPGTTIQMNSFSNSPNEKIPLSQLKVTYTKEGLALTLPDHEEVFYTYNGELNTMVHSFFSLPRAVSFSIRTGESTPRLMLGDLVVQRAKWHISKQDVWSKKHTGSSIELFYEAYRFHLKESLPKEGFAKLPGQPKPVYVNFTSYFLIEMLEGLWPDGENCTFSEMLPNLSELWLSKEDQKTHTAEIRLSYFVERSEGHHHHHH | soluble |
| MGSDKIHHHHHHMADLKKQIASGKIAPVYFFQGPESWLKEEIETQLKAAIFPSENEAALNTLVLYGPDLTLGQIVSAASEYPMFTEKKLVVVRQFDKLKKVTDKTESQRQEKSLLSYLSDPPSFTVLVLDADEIEKTELEKAPYKHLKAFRHDFGAIKNAEIFAAERAREAGWEFEPEALKTFSGYIEPSSRLICQEIEKLTLYASNKRPERRITLDDVCDCVGISRKYNVFELEKALVSKNLRQCSGIALMIMEQEGQKEGLMNIVRYLTTFFLRIWKLQTPGAQQLSLQETAAMLGMYGRQEYFAKNFIGYARQFSAAETENAILALRDADAALKGIIPSPDDRFTLLKLMQQLFN | not soluble |
| MHHHHHHSSGVDLGTENLYFQSMVPPIPKQDGGEQNGGMQCKPYGAGPTEPAHPVDERLKNLEPKMIELIMNEIMDHGPPVNWEDIAGVEFAKATIKEIVVWPMLRPDIFTGLRGPPKGILLFGPPGTGKTLIGKCIASQSGATFFSISASSLTSKWVGEGEKMVRALFAVARCQQPAVIFIDEIDSLLSQRGDGEHESSRRIKTEFLVQLDGATTSSEDRILVVGATNRPQEIDEAARRRLVKRLYIPLPEASARKQIVINLMSKEQCCLSEEEIEQIVQQSDAFSGADMTQLCREASLGPIRSLQTADIATITPDQVRPIAYIDFENAFRTVRPSVSPKDLELYENWNKTFGCGK | soluble |
